Experimental data: US20260209374A1 (ENOSI THERAPEUTICS, published 2026)
Where “and” joins values, the source holds several entries; their conditions need not be identical. Equal entries are not always repeated.

T1: TNFR1 on the cells of the TNF-dependent bioassays (THP1 cells in Examples 4 and 6) (human, UniProt P19438 30-455)
T1 sequence: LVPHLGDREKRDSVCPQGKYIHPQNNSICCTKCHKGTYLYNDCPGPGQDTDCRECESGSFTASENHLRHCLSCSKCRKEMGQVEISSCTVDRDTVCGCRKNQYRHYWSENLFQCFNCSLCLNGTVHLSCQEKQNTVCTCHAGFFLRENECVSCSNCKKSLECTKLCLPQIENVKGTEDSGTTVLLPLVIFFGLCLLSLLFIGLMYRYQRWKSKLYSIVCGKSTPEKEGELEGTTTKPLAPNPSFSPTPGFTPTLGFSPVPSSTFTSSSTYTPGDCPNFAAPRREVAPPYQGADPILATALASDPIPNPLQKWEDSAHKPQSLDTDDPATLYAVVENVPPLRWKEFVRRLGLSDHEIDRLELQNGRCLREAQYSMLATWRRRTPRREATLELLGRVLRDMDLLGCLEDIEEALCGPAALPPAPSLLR

T2: human soluble TNFR2 (human, UniProt P20333 23-257)
T2 construct: also called hTNFR2; TNF receptor type 2
T2 sequence: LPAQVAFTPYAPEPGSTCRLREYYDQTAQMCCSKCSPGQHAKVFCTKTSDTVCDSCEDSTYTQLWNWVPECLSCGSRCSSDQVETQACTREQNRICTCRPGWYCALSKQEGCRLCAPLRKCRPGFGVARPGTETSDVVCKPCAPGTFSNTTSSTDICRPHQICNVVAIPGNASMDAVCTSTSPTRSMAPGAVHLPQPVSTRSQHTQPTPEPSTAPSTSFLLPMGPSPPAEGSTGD

T3: human soluble TNFR1 (human, UniProt P19438 30-211)
T3 construct: also called hTNFR1; hTNFR-1
T3 sequence: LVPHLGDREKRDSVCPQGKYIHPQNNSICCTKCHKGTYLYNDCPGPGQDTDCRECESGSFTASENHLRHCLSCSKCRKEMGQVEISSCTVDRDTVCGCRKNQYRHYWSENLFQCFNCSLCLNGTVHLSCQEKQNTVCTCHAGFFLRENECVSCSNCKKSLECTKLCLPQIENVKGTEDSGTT

T4: Human TNFR1/CD120a protein, His & Avi tag (human, UniProt P19438 30-211)
T4 construct: Captured on HIS1K or streptavidin biosensors; also called TNFR1-His-avi tag protein; immobilized soluble human TNFR1; not shown: His tag and Avi tag
T4 sequence: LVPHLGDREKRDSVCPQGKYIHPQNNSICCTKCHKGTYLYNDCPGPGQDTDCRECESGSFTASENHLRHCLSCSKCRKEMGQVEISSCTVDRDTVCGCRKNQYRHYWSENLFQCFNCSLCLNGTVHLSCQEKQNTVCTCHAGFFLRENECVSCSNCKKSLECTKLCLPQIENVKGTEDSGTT

T5: extracellular domain of TNFR-1 (Example 4) (UniProt P19438 30-211, limits assumed)
T5 construct: extracellular domain; also called TNFR1 extracellular domain
T5 sequence (looked up): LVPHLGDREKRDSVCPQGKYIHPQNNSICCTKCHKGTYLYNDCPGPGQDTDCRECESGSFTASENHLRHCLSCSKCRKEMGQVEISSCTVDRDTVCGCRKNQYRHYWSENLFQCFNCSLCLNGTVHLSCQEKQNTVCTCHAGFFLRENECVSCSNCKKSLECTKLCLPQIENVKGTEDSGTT


Columns and labels:
[1] = target: T1, TNFR1 on the cells of the TNF-dependent …; assay: cell-based or functional assay
human soluble TNFR2 [2] = target: T2, human soluble TNFR2; assay: SPR; VHH-Fc captured by anti-human IgG (Fc) antibody on CM5 sensor chip, TNFR2 as analyte
human soluble TNFR1 [3] = target: T3, human soluble TNFR1; assay: SPR; VHH-Fc captured by anti-human IgG (Fc) antibody on CM5 sensor chip, human soluble TNFR1 as analyte
Text: CM5 sensor chip (Cytiva #BR100530) was coated with an anti-human IgG (Fc) antibody (Cytiva #29234600) to capture the EN1206-BV and EN1208-BV. The human soluble TNFR1 was used as analyte for binding flow.

human soluble TNFR1 [4] = target: T3, human soluble TNFR1; assay: SPR; VHH-Fc captured on Series S Protein A sensor chip, human soluble TNFR1 as analyte (0.781-100 nM), 1:1 binding fit
Text: (§1) Series S Sensor Chip Protein A (Cytiva #29127556) was used to immobilize the Fc portion of the VHH/Fc proteins. The human soluble TNFR1 and TNFR2 are used for the SPR binding flow.

human soluble TNFR2 [5] = target: T2, human soluble TNFR2; assay: SPR; VHH-Fc captured on Series S Protein A sensor chip, human soluble TNFR2 as analyte
Text: as §1

[6] = target: T4, Human TNFR1/CD120a protein, His & Avi …; assay: BLI, Octet RED96; TNFR1-His-Avi immobilised on anti-penta-His (HIS1K) biosensor, EN1206-mv 0.412-100 nM
Procedure: An Octet instrument RED96 was used for the assay. Octat anti-penta His biosensor (HIS1K) and Octet Streptavidin (SA) biosensor were used to immobilize the TNFR1-His-avi tag protein. […] Octet RED96 was used to measure the binding affinity of EN1206-mv and EN1208-bv. […] A dose-dependent binding of EN1208-bv to the immobilized TNFR1 on SA chip was detected within the concentration range of 3.7 nm to 300 nM (FIG. 11B).
The experiments started with the determination of the binding specificity and affinity of EN1206 and EN1208 to the immobilized human soluble TNFR1. A concentration-dependent binding of EN1206 and EN1208 to the TNFR1 was observed, respectively (Table 15, FIGS. 11A-11B). Due to a lack of detectable dissociation of EN1208-BV after its binding to the immobilized TNFR1 within the dissociation assay time frame (~5 min), the on-rate (ka) and off-rate (kd) could not be calculated. Thus, an affinity (KD) for EN1208 was estimated (Table 15).

[7] = target: T5, extracellular domain of TNFR-1 (Example …); assay: SPR (Biacore method)
human soluble TNFR1 [8] = target: T3, human soluble TNFR1; assay: SPR (format not described)
[9] = target: T1, TNFR1 on the cells of the TNF-dependent …; assay: cell-based or functional assay; remark: listed apart in the source
[10] = target: T5, extracellular domain of TNFR-1 (Example …); assay: competition assay, Vhh inhibition of TNF-α binding to TNFR1 extracellular domain; competitor TNF-α
Procedure: Competition assays of Vhh inhibition of TNF-α binding to TNFR1 extracellular domain also were performed as described in Richter et al. (2019).

fold improvement over Etanercept in inhibition of IL-8 expression, TNF-stimulated THP1 cells (qPCR) [1]	fold improvement over Etanercept in inhibition of TNF expression, TNF-stimulated THP1 cells (qPCR) [1]	relative gene expression of IL8/CXCL8 (qPCR, THP1 cells, TNF 100 ng/ml), 1 nM inhibitor, against baseline [1]	relative potency against 206dAb, suppression of TNF-induced expression of IL8/CXCL8 in THP1 cells, 1 nM [1]	relative potency against 206dAb, suppression of TNF-induced expression of TNF in THP1 cells, 1 nM [1]	Kd (human soluble TNFR1 [4])	Kd [7]	TNF Dependent Bioassay (IC50): VCAM [9]	Binder	also measured
–	–	–	–	–	–	0.00066 nM	0.3 nM	Vhh-4 (VHH) VHH: EVQLLESGGGLVQPGGSLRLSCAASGFTFAHETMVWVRQAPGKGLEWVSHIPPDGQDPFYADSVKGRFTISRDNSKNTLYLQMNSLRAEDTAVYHCALLPKRGPWFDYWGQGTLVTVSS	Kd (human soluble TNFR1 [8]): 0.407 nM and 0.3 nM to 0.5 nM (2×); IC50 [10]: ~1 nM
–	–	–	–	–	–	1000 nM	3 nM	Vhh-2 (VHH, not shown: small tags and cut ends) VHH: EVQLLESGGGLVQPGGSLRLSCAASGFTFSQYRMHWVRQAPGKSLEWVSSIDTRGSSTYYADPVKGRFTISRDNSKNTLYLQMNSLRAEDTAVYYCAKAVTMFSPFFDYWGQGTLV	–

Second part, the binder before the results:

Binder	fold improvement over Etanercept in inhibition of IL-8 expression, TNF-stimulated THP1 cells (qPCR) [1]	fold improvement over Etanercept in inhibition of TNF expression, TNF-stimulated THP1 cells (qPCR) [1]	relative gene expression of IL8/CXCL8 (qPCR, THP1 cells, TNF 100 ng/ml), 1 nM inhibitor, against baseline [1]	relative potency against 206dAb, suppression of TNF-induced expression of IL8/CXCL8 in THP1 cells, 1 nM [1]	relative potency against 206dAb, suppression of TNF-induced expression of TNF in THP1 cells, 1 nM [1]	Kd (human soluble TNFR1 [4])	Kd [7]	TNF Dependent Bioassay (IC50): VCAM [9]	also measured
EN-1206-Fc-BV (Fc fusion, Homodimeric, bivalent; In some paragraphs 'EN1206' also means the HSA fusion or the dAb itself; also called EN1206-BV; EN1206 bivalent) EVQLLESGGGLVQPGGSLRLSCAASGFTFAHETMVWVRQAPGKGLEWVSHIPPDGQDPFYADSVKGRFTISRDNSKNTLYLQMNSLRAEDTAVYHCALLPKRGPWFDYWGQGTLVTVSSDKTHTCPPCPAPEAAGGPSVFLFPPKPKDTLYITREPEVTCVVVDVSHEDPEVKFNWYVDGVEVHNAKTKPREEQYNSTYRVVSVLTVLHQDWLNGKEYKCKVSNKALGAPIEKTISKAKGQPREPQVYTLPPSRDELTKNQVSLTCLVKGFYPSDIAVEWESNGQPENNYKTTPPVLDSDGSFFLYSKLTVDKSRWQQGNVFSCSVMHEALHNHYTQKSLSLSPGK	5.9 fold	15 fold	1.75 fold	7 fold	6.5 fold	0.185 nM	–	–	binding result (human soluble TNFR2 [2]): no binding; Kd (human soluble TNFR1 [3]): 1.49 nM
EN-1206-Fc-MV (Fc fusion, One-armed (monovalent) knob-into-hole heterodimer; the leader is cleaved on expression; also called EN1206-MV; EN1206-mv) chain 1: EVQLLESGGGLVQPGGSLRLSCAASGFTFAHETMVWVRQAPGKGLEWVSHIPPDGQDPFYADSVKGRFTISRDNSKNTLYLQMNSLRAEDTAVYHCALLPKRGPWFDYWGQGTLVTVSSDKTHTCPPCPAPEAAGGPSVFLFPPKPKDTLYITREPEVTCVVVDVSHEDPEVKFNWYVDGVEVHNAKTKPREEQYNSTYRVVSVLTVLHQDWLNGKEYKCKVSNKALGAPIEKTISKAKGQPREPQVYTLPPSRDELTKNQVSLWCLVKGFYPSDIAVEWESNGQPENNYKTTPPVLDSDGSFFLYSKLTVDKSRWQQGNVFSCSVMHEALHNHYTQKSLSLSPGK chain 2: DKTHTCPPCPAPEAAGGPSVFLFPPKPKDTLYITREPEVTCVVVDVSHEDPEVKFNWYVDGVEVHNAKTKPREEQYNSTYRVVSVLTVLHQDWLNGKEYKCKVSNKALGAPIEKTISKAKGQPREPQVYTLPPSRDELTKNQVSLSCAVKGFYPSDIAVEWESNGQPENNYKTTPPVLDSDGSFFLVSKLTVDKSRWQQGNVFSCSVMHEALHNHYTQKSLSLSPGK	10.6 fold	6.8 fold	1.75 fold	9.3 fold	9 fold	0.388 nM	–	–	binding result (human soluble TNFR2 [5]): no binding; Kd [6]: 0.314 nM; koff [6]: 0.000284 s⁻¹; kon [6]: 903000 M⁻¹ s⁻¹
EN-1000-206 (VHH) VHH: EVQLLESGGGLVQPGGSLRLSCAASGFTFAHETMVWVRQAPGKGLEWVSHIPPDGQDPFYADSVKGRFTISRDNSKNTLYLQMNSLRAEDTAVYHCALLPKRGPWFDYWGQGTLVTVSS	–	–	8 fold	–	–	–	–	–	–
